Assay results as given in IntAct's records for PubMed 15466887.

B1: Beta-secretase 1 (Homo sapiens), P56817 (parent)
chain: MAQALPWLLLWMGAGVLPAHGTQHGIRLPLRSGLGGAPLGLRLPRETDEEPEEPGRRGSFVEMVDNLRGKSGQGYYVEMTVGSPPQTLNILVDTGSSNFAVGAAPHPFLHRYYQRQLSSTYRDLRKGVYVPYTQGKWEGELGTDLVSIPHGPNVTVRANIAAITESDKFFINGSNWEGILGLAYAEIARPDDSLEPFFDSLVKQTHVPNLFSLQLCGAGFPLNQSEVLASVGGSMIIGGIDHSLYTGSLWYTPIRREWYYEVIIVRVEINGQDLKMDCKEYNYDKSIVDSGTTNLRLPKKVFEAAVKSIKAASSTEKFPDGFWLGEQLVCWQAGTTPWNIFPVISLYLMGEVTNQSFRITILPQQYLRPVEDVATSQDDCYKFAISQSSTGTVMGAVIMEGFYVVFDRARKRIGFAVSACHVHDEFRTAAVEGPFVTLDMEDCGYNIPQTDESTLMTIAYVMAAICALFMLPLCLMVCQWRCLRCLRQQHDDFADDISLLK
partner: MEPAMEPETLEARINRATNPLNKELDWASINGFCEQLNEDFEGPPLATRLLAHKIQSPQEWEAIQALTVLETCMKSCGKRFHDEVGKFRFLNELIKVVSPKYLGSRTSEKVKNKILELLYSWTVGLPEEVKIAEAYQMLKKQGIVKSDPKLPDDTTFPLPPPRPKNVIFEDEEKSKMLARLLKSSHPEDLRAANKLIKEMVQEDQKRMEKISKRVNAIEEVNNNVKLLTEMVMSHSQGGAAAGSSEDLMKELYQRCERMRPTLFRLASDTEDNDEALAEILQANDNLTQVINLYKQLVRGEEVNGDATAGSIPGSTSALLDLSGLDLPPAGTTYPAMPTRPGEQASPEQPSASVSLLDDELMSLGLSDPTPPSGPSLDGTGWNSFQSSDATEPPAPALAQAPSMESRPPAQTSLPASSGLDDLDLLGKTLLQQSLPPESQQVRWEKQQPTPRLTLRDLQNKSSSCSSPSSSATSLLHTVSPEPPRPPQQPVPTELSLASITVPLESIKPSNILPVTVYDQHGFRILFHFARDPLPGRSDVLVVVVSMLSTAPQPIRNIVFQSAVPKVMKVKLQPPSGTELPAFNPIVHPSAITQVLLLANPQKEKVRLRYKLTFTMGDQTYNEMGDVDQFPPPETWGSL

Variants of: B1
Details: with gga1_human GGA1, Q9UJY5

Row | effect of a mutation on the interaction | Variant
1 | with no effect | S498D
2 | decreasing interaction strength | S498A
